Measurements: patent US10501502B2, “Allophycocyanin alpha-subunit evolved labeling proteins (smURFPs)” (The Regents of the University of California, priority 2016, dated 2019)
Where two headings read alike, the source gives them in different places.

Tests used:
HT1080 cells = experiment: FP fluorescence in HT1080 cells in vitro; type: cell-based; details: for fold greater fluorescence than mCardinal: BVMe2
Escherichia coli = experiment: Fluorescence of FPs expressed in Escherichia coli; type: cell-based
Procedure: TeAPCα gene (codons optimized for Escherichia coli) was made by GenScript. Mutations were placed by random mutagenesis using GeneMorphII Random Mutagenesis Kit (Agilent Technologies). Screens for mutants that fluoresce with PCB or BV were performed by subcloning into a pBAD vector (Life Technologies) that expressed cyanobacteria Synechocystis HO-1 and Synechocystis PcyA genes for PCB production and Synechocystis HO-1 only for BV production, as previously described^34. Libraries were expressed in TOP 10 Electrocompetent Escherichia coli cells (Life Technologies) with addition of 0.2% arabinose to LB agar plates (FPs were constitutively expressed in Escherichia coli). Fluorescence was imaged on plates using a BioSpectrum AC Imaging System (UVP) with EX/EM=628(40)/690(50) nm for FPs+PCB, EX/EM=685(40)/710LP nm for rounds 4 and 5 FPs+BV, and EX/EM=650(13)/690(50) nm for Cy5-like FPs+BV (rounds 6-12). At round 6, 5-10 of the brightest colonies on each plate were combined in LB+0.2% arabinose, grown ˜18 h, mixture of plasmid DNA was purified, and TOP10 cells were transformed and plated on LB agar plates+0.2% arabinose. Fluorescence was screened on plates (as described above), 10-20 of the brightest colonies were screened in liquid culture fluorescence (FIG. 7a-e), plasmid DNA was purified, and DNA was sequenced. The plasmid DNA of 2-3 of the brightest FPs was chosen for mutagenesis for the subsequent round. When choosing DNA for subsequent mutagenesis rounds, genes with increased and/or novel silent DNA mutations were chosen over other DNA that had the same DNA and/or protein sequence of the previous round. Site-specific mutagenesis was performed using QuikChange Lightning Mutagenesis Kit (Agilent Technologies) to create smURFP (C4S mutation) and smURFP C52S.

[1] = In vitro photobleaching of bubbles of purified FP or Cy5 in mineral oil; type: physicochemical
Procedure: EX and EM spectra were obtained using SPEX Fluorolog fluorometer (Horiba). Absorbance spectra were obtained using UV-VIS Spectrophotometer Cary Eclipse (Varian) or UV-2700 (Shimadzu). Quantum yield was determined relative to Cy5. Incorporation rates of BV on 0.5 μM smURFP was performed by addition of smURFP to PBS alone or with 20% fetal bovine serum (FBS) and mixed by pipetting in a quartz cuvette. Chromophore was added last, mixed by pipetting, and fluorescence was recorded using SPEX Fluorolog fluorometer (Horiba). Photobleaching was characterized on bubbles of purified FP or Cy5 within mineral oil using light from a 150 W xenon arc lamp with 100% light through EX/EM=628(40)/680(30) nm for smURFP, TDsmURFP, and Cy5 or EX/EM=665 (45)/725 (50) nm for IFP 1.4 focused with a 40×, 1.2 numerical aperture C-Apochromat oil-immersion lens on a Zeiss Axiovert 200M inverted microscope. Photobleaching times were normalized to reflect an initial illumination intensity producing 1,000 photons per fluorescent molecule per second as previously described^37.

[2] = Native PAGE quaternary structure / stoichiometry; type: physicochemical; details: for stoichiometry: Table 5
Procedure: Native PAGE was run using NativePAGE Novex Bis-Tris Gel System (Life Technologies) on Native PAGE 4-16% Bis-Tris protein gels (Life Technologies). SDS-denaturing PAGE was run using NuPAGE MOPS SDS running buffer (Life Technologies) and NuPAGE Novex 4-12% Bis-Tris gels (Life Technologies). Precision Plus Protein Dual Color Standards (Bio-Rad) were used as an MW ladder. Zinc blot was performed after running the SDS-PAGE gel using the described method^44. Fluorescence was imaged using a BioSpectrum AC Imaging System (UVP) with EX/EM=535(45)/605(70) nm for tdTomato, EX/EM=650(13)/690(50) nm for smURFP and TDsmURFP, EX/EM=685(40)/710LP nm for IFP1.4 and BV+zinc.

[3] = FP purification and fluorescence characterization in vitro (spectra, extinction coefficient, quantum yield); type: physicochemical
Procedure, shortened: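 His-tagged FPs expressed in E. coli with PCB or BV and Ni-NTA purified; apoproteins loaded in vitro with chromophore in PBS+10% FBS at 37 °C overnight. Extinction coefficient from BV absorbance at 390 nm or BCA protein assay; quantum yield relative to Cy5; photobleaching normalised to 1,000 photons/molecule/s.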

[4] = smURFP/TDsmURFP + 1 or 2 chromophore, Table 7

B1: smURFP: small ultra-red fluorescent protein, SEQ ID NO: 13, homodimer, covalently attaches biliverdin (protein)
chain: MKTSEQRVNIATLLTENKKKIVDKASQDLWRRHPDLIAPGGIAFSQRDRALCLRDYGWFLHLITFCLLAGDKGPIESIGLISIREMYNSLGVPVPAMMESIRCLKEASLSLLDEEDANETAPYFDYIIKAMS
modifications: homodimer; biliverdin chromophore; smRUFP Variant Polypeptide
fluorescence relative to mCherry in HT1080 cells in vitro (HT1080 cells; 12.5 μM BV for 3 h): equivalent | fold greater fluorescence than mCardinal (HT1080 cells; HT1080, T2A construct): 4 fold | fluorescence when expressed in E. coli (qualitative) (Escherichia coli): greater than that of infrared FPs IFP1.4 and iRFP713 | fold brighter than R1+PCB (Escherichia coli; expressed in E. coli): ~650 fold | in vitro photobleaching t50% ([1]; excitation intensity yielding 1,000 photons per s): 300 s | In vitro photostability t50% ([1]; time to bleach 50% from an initial emission rate of 1,000 photons per s): 300 s | quaternary structure on native gel [2]: homodimer | stoichiometry [2]: Dimer | Emission Maximum [3]: 670 nm | extinction coefficient (EC) [3]: 180,000 M^−1cm^−1 | increase of BV QY after covalent attachment to smURFP [3]: ~1,400 fold | quantum yield (QY) [3]: 18% | Molecular Brightnes Relative to smURFP ([3]; Table 4): 100% | Emission Maximum ([3]; Table 5): 670 nm | Excitation Maximum ([3]; Table 5): 642 nm | Extinction Coefficient ([3]; Table 5): 180,000 ^ m^−1cm^−1/chromophore | Quantum Yield ([3]; Table 5): 18% | molecular brightness relative to eGFP ([3]; Table 5): 96% | Quantum Yield ([3]; b72, as fraction): 0.20 | brightness relative to most red or far-red fluorescent proteins derived from coral ([3]; biophysical brightness): ~2 fold | Emission Maximum ([3]; evolved APCα FPs, Table 4): 670 nm | Excitation Maximum ([3]; evolved APCα FPs, Table 4): 642 nm | Extinction Coefficient ([3]; evolved APCα FPs, Table 4): 180,000 M^−1 cm^−1 | Quantum Yield ([3]; evolved APCα FPs, Table 4): 18% | excitation (absorption) maximum ([3]; running text and figure legends): 642 nm | Emission Maximum [3, 4]: 670 nm | Excitation Maximum [3, 4]: 642 nm | Extinction Coefficient [3, 4]: 180,000 M^−1 cm^−1 | Quantum Yield [3, 4]: 18%

B2: smURFP + BVMe2: smURFP with a single biliverdin dimethyl ester chromophore (protein)
chain: B1 chain
modifications: left off: small tags and cut ends
notes: smURFP with a single biliverdin dimethyl ester chromophore
fold greater fluorescence than mCardinal (HT1080 cells; HT1080 stable lines expressing each FP separately): 2 fold | stoichiometry [2]: Dimer | Emission Maximum ([3]; Table 5): 672 nm | Excitation Maximum ([3]; Table 5): 646 nm | Extinction Coefficient ([3]; Table 5): 65,000^ m^−1cm^−1/chromophore | Quantum Yield ([3]; Table 5): 12% | molecular brightness relative to eGFP ([3]; Table 5): 23% | Emission Maximum [3, 4]: 672 nm | Excitation Maximum [3, 4]: 646 nm | Extinction Coefficient [3, 4]: 65,000 M^−1 cm^−1 | Quantum Yield [3, 4]: 12%
